From patent publication US7879328B2 (Human Genome Sciences, Inc., priority 2000, dated 2011)
Changes are numbered by the printed parent chain.

B1: I099D03: scFv, panel 3, binds membrane-bound B Lymphocyte Stimulator (protein, listed as Homo sapiens)
scFv: QVQLVQSGAEVKKPGASVRVSCKSSGYTFTNYGISWVRQAPGQGLEWMGWISNNNGKTYYAQKVQGRVTMTTDTSTSTDYMELRGLRSDDTAIYYCARDNGGGTIGFDYWGRGTLVTVSSGGGGSGGGGSGGGGSAQAVLTQPSSVSGAPGQRVTMSCTGSSSNIGAGYDVHWYQQLPGTAPKLLIYDNTNRPSGVPDRFSGSRSGTSASLAITGLQAEDEADYFCQSYDITLSAVFGTGTKVTVLG
B2: I008C03: scFv, panel 1, binds soluble and membrane-bound B Lymphocyte Stimulator (protein, listed as Homo sapiens)
scFv: QMQLVRSGGGVVQPGRSLRLSCAASGFTFSSYGMHWVRQAPGKGLEWVSVTYSGGNTNYADSVRGRFTISRDNSKNTLYLQMNSLRAEDTAVYYCAREGSYDILTGYYVGVGRMDVWGKGTLVTVSSGGGGSGGGGSGGGGSSELTQDPAVSVALGQTVRITCQGDSLRSYYTNWFQQKPGQAPLLVVYAKNKRPSGIPDRFSGSSSGNTASLTITGAQAEDEADYYCNSRDSSGNHVVFGGGTKLTVLG
B3: I079E02: scFv, panel 3, binds membrane-bound B Lymphocyte Stimulator (protein, listed as Homo sapiens)
scFv: QVQLVQSGAEVKKPGSSVKVSCKASGGTFSSYAISWVRQAPGQGLEWMGGIIPIFGTANYAQKFQGRVTITADKSTSTAYMELSSLRSDDTAVYYCARDSGSYYYDAFDIWGKGTMVTVSSGGGGSGGGGSGGGGSDIVMTQSPSTLSASVGDRVTITCRASQGISSWLAWYQQKPGKAPKLLIYAASSLQSGVPSRFSGSGSGTDFTLTISSLQPEDFATYYCQQANSFPLTFGGGTKVEIKR
B4: I037E07: scFv, panel 1, binds soluble and membrane-bound B Lymphocyte Stimulator (protein, listed as Homo sapiens)
scFv: QVQLVQSGAEVKKPGASVKVSCKASGYTFTNYGITWVRQAPGQGLEWMGWISAYNGNRNYAQKLQGRVTMTTDTSTSTAYMELRSLRSDDTAVYYCVRDGIDILLVPAALMDVWGRGTMVTVSSGGGGSGGGGSGGGGSQSVLTQPASVSGSPGQSITISCTGTSSDVGGYNYVSWYQQHPGKAPKLMIYEGSKRPSGVSNRFSGSKSGNTASLTISGLQAEDEADYYCSSYTTRSTRVFGGGTKLTVLG
B5: I037E12: scFv, panel 1, binds soluble and membrane-bound B Lymphocyte Stimulator (protein, listed as Homo sapiens)
scFv: B4 scFv with Q1E, R116K, M119L, S193N
B6: I082H08: scFv, panel 3, binds membrane-bound B Lymphocyte Stimulator (protein, listed as Homo sapiens)
scFv: EVQLVESGGGLVQPGGSLRLSCAASGFTFSDYGMHWVRQRPGKGLEWIAFIGSDGSNKYYGDTVKGRFTISRDNAKNSLYLQMNSLRAEGTAVYYCARDWDMDVWGQGTMVTVSSGGGGSGGGGSGGGGSSHVILTQPRSVSGSPGQSVTISCTGTSSDVGGYHYVSWYQQHPGKAPRLMIYEVTKRPSGVSNRFSGSKSGNTASLTISGVQAEDEADYYCSSYTSASTVIFGGGTKLTVLG

Key:
HIV = conditions: greater activity; cited from earlier work
[1] = biological target: T1, murine membrane-bound B Lymphocyte Stimulator on P388 plasma membranes (Mus musculus, UniProt Q9WU72); assay: Competition ELISA on P388 plasma membranes; format: binding; conditions: phage scFv; for competition of P388 plasma membrane binding by HIS-tagged B Lymphocyte Stimulator: human competitor; for recognition of P388 plasma membranes: membranes coated at 10 μg/ml
T1 construct: endogenous in cells; host or cells: P388.D1 cells, plasma membrane fraction coated on plates
T1 sequence (Q9WU72 whole entry): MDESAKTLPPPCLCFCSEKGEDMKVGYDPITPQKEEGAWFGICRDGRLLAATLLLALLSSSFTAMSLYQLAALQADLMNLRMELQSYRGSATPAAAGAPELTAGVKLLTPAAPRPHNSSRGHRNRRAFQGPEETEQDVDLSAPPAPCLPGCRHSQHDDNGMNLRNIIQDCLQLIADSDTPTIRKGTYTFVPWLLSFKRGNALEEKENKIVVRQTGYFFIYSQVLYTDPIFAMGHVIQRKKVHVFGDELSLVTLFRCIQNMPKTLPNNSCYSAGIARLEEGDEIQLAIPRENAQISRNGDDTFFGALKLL
Experimental: The ability of the 5 scFvs listed in Table 8 to also recognize murine membrane-bound B Lymphocyte Stimulator was determined using a competition ELISA. This assay assesses the ability of test phage scFvs to bind to the membrane-bound form of B Lymphocyte Stimulator on the murine cell line, P388, plasma membranes in the presence of different forms of competing human B Lymphocyte Stimulator. Competing B Lymphocyte Stimulator was either presented as the His-tagged form of B Lymphocyte Stimulator, or soluble B Lymphocyte Stimulator. ScFvs that recognize mouse membrane-bound B Lymphocyte Stimulator would give an ELISA signal on the P388 plasma membranes that is competed out by pre-incubation with HIS-tagged B Lymphocyte Stimulator but not by pre-incubation with soluble B Lymphocyte Stimulator.
P388.D1 cells are a mouse monocyte-macrophage like cell line. They were cultured in L15 medium supplemented with 2 mM L-glutamine, 10% CS, 10U penicillin, 100 µg/ml streptomycin (all reagents from Sigma). Cells were split 1:4 every 3-4 days to maintain a cell density of 2−8×10^5 per ml. A fresh aliquot of cells was thawed from liquid nitrogen every 6 weeks. Plasma membrane fractions were prepared as described in Example 2.
P388 plasma membranes ([…] per well) were coated at 10 μg/ml in PBS onto Falcon 96-well plates overnight at 4° C. The method is otherwise essentially as described Example 16.

[2] = biological target: mouse B Lymphocyte Stimulator (Mus musculus, UniProt Q9WU72); assay: Phage ELISA on immobilized mouse B Lymphocyte Stimulator; format: binding; conditions: phage scFv; antigen coated at 1 μg/ml
Sequence of mouse B Lymphocyte Stimulator (Q9WU72 127-309 limits assumed): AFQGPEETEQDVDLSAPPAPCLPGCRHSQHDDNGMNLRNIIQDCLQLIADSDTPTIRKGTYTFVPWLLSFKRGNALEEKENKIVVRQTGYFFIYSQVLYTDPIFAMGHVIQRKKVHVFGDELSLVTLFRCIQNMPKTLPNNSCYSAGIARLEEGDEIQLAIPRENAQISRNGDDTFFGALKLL
Experimental: To determine the specificity of the 48 scFvs, a phage ELISA was performed against human and mouse B Lymphocyte Stimulator, and a panel of related and unrelated human antigens: Fas ligand, TRAIL, TNFα, TNFβ, and PBS, The: Fas ligand, TRAIL, TNFα, and TNFβ antigens were obtained from R&D Systems, Minneapolis, Minn., Individual E. coli colonies containing phagemid were inoculated into 5 ml 2YTAG and incubated at 37° C. for 4 hours, shaking. M13KO7 helper phage (Pharmacia) was added to each tube to a MOI of 10 and incubated […] 1 hour, the first 30 minutes static and the final 30 minutes with gentle shaking. Cells were pelleted by centrifugation at 3,500 rpm for 10 minutes and the supernatant discarded. Cell pellets were resuspended in 5 ml 2TYAK and incubated at 30° C. overnight with shaking. The next day, the cells were pelleted by centrifugation at 3,500 rpm for 10 minutes. The phage-containing supernatant (5 ml) was carefully transferred to a fresh tube, 1 ml of 6MPBS was added, and the tube was incubated at room temperature for 1 hour to pre-block the phage prior to ELISA.
All antigens were coated at 1 μg/ml. ELISAs were performed essentially as described in Example 2. The only exception to this being the detection of phage antibody binding to mouse B Lymphocyte Stimulator where the step involving incubation with the HRP-labelled anti-mouse polymer was omitted. Binding to mouse B Lymphocyte Stimulator was detected with TMB as in Example 2.
To determine the specificity of the 33 scFvs, a phage ELISA was performed as described in Example 4 against human and mouse B Lymphocyte Stimulator, and a panel of related human antigens: TRAIL, LIGHT, TNFα, TNFβ, and an uncoated well (PBS only).

| Molecule | activity relative to HBY097 (HIV) | competition of P388 plasma membrane binding by HIS-tagged B Lymphocyte Stimulator [1] | recognition of P388 plasma membranes [1] | binding to immobilized mouse B Lymphocyte Stimulator [2] |
| --- | --- | --- | --- | --- |
| CC[C@H]1C(=O)Nc2ccc(F)cc2N1C(=O)OC(C)C [GW-420867X] | 25 fold |  |  |  |
| B1 |  | competed out | recognize |  |
| B2 |  |  |  | did not bind |
| B3 |  | competed out | recognize |  |
| B4 |  |  |  | did not bind |
| B5 |  |  |  | did not bind |
| B6 |  | competed out | recognize |  |
